Experimental data from PMC8379338, “Structures of heat shock factor trimers bound to DNA” (iScience, 2021).

Tests used:
[1] = target: the molecule itself; experiment: crystal structure; DBD co-crystallised with a sticky-ended three-site HSE DNA duplex (21 bp for HSF2; 23 bp and 24 bp for HSF1); protein:DNA molar ratio 3:1.2; hanging drop, 20°C; three DBD copies on one DNA duplex
HSF1-DBD trimer [2] = target: T1, HSF1-DBD trimer (Homo sapiens, UniProt Q00613 15-120); experiment: X-ray crystallography; 2.36 A; Co-crystallization at 20 C, hanging drop; protein stock in 20 mM Tris pH 8.0, 150 mM NaCl, 1 mM DTT, 0.2 mM EDTA; DNA annealed in TE; protein:DNA 2:1.5 (2-site) or 3:1.2 (3-site); HSF2 3-site reservoir 0.1 M HEPES pH 7.5, 25% PEG; conditions: protein: recombinant; tags: His6 (N-terminal, between MBP and DBD; MBP removed in vivo by TEV protease); chain copies: 3; 23 bp, 5' overhang 1 nt on both strands
HSF1-DBD = HSF1-DBD (Homo sapiens, UniProt Q00613 15-120); experiment: X-ray crystallography; 2.0 A; Co-crystallization at 20 C, hanging drop; protein stock in 20 mM Tris pH 8.0, 150 mM NaCl, 1 mM DTT, 0.2 mM EDTA; DNA annealed in TE; protein:DNA 2:1.5 (2-site) or 3:1.2 (3-site); HSF2 3-site reservoir 0.1 M HEPES pH 7.5, 25% PEG; conditions: protein: recombinant; tags: His6 (N-terminal, between MBP and DBD; MBP removed in vivo by TEV protease); chain copies: 2; blunt; self-complementary, 2 copies of the strand
HSF1-DBD trimer [3] = target: T1, HSF1-DBD trimer; experiment: X-ray crystallography; 2.4 A; Co-crystallization at 20 C, hanging drop; protein stock in 20 mM Tris pH 8.0, 150 mM NaCl, 1 mM DTT, 0.2 mM EDTA; DNA annealed in TE; protein:DNA 2:1.5 (2-site) or 3:1.2 (3-site); HSF2 3-site reservoir 0.1 M HEPES pH 7.5, 25% PEG; conditions: protein: recombinant; tags: His6 (N-terminal, between MBP and DBD; MBP removed in vivo by TEV protease); chain copies: 3; 22 bp, 5' overhang 1 nt on both strands
HSF2-DBD = HSF2-DBD (Homo sapiens, UniProt Q03933 7-112); experiment: X-ray crystallography; 1.7 A; Co-crystallization at 20 C, hanging drop; protein stock in 20 mM Tris pH 8.0, 150 mM NaCl, 1 mM DTT, 0.2 mM EDTA; DNA annealed in TE; protein:DNA 2:1.5 (2-site) or 3:1.2 (3-site); HSF2 3-site reservoir 0.1 M HEPES pH 7.5, 25% PEG; conditions: protein: recombinant; tags: His6 (N-terminal, between MBP and DBD; MBP removed in vivo by TEV protease); chain copies: 2; blunt; self-complementary, 2 copies of the strand
HSF2-DBD trimer = HSF2-DBD trimer (Homo sapiens, UniProt Q03933 7-112); experiment: X-ray crystallography; 1.75 A; Co-crystallization at 20 C, hanging drop; protein stock in 20 mM Tris pH 8.0, 150 mM NaCl, 1 mM DTT, 0.2 mM EDTA; DNA annealed in TE; protein:DNA 2:1.5 (2-site) or 3:1.2 (3-site); HSF2 3-site reservoir 0.1 M HEPES pH 7.5, 25% PEG; conditions: protein: recombinant; tags: His6 (N-terminal, between MBP and DBD; MBP removed in vivo by TEV protease); chain copies: 3; 20 bp, 5' overhang 1 nt on both strands

B1: DNA-binding domain (DBD) of human heat shock factor 2 (HSF2), residues 7-112 (domain or fragment, UniProt Q03933 7-112, looked up)
chain: VPAFLSKLWTLVEETHTNEFITWSQNGQSFLVLDEQRFAKEILPKYFKHNNMASFVRQLNMYGFRKVVHIDSGIVKQERDGPVEFQHPYFKQGQDDLLENIKRKVS
notes: The His6 tag lies between the TEV site and the DBD; MBP was removed in vivo by co-expressed TEV protease; In the crystals, two or three copies sit on one DNA duplex; also called HSF2-DBD; DBD I; source: E. coli Rosetta2(DE3) carrying pRK603, purified (Ni-NTA, cation exchange, SEC); not shown: MBP, N-terminal, cleaved
[1]
  binding result: binds

B2: 24 bp 3-site HSE (dsDNA)
DNA 1: TGTGCGTTCTAGAATATTCGCGAG
DNA 2: ACTCGCGAATATTCTAGAACGCAC
HSF1-DBD trimer [2]
  binding result: binds

B3: 14 bp HtH HSE (dsDNA)
DNA 1: GCCGAATATTCGGC
DNA 2: GCCGAATATTCGGC
HSF1-DBD
  binding result: binds

B4: DNA-binding domain (DBD) of human heat shock factor 1 (HSF1), residues 15-120 (domain or fragment, UniProt Q00613 15-120, looked up)
chain: VPAFLTKLWTLVSDPDTDALICWSPSGNSFHVFDQGQFAKEVLPKYFKHNNMASFVRQLNMYGFRKVVHIEQGGLVKPERDDTEFQHPCFLRGQEQLLENIKRKVT
notes: The His6 tag lies between the TEV site and the DBD; MBP was removed in vivo by co-expressed TEV protease; In the crystals, two or three copies sit on one DNA duplex; also called HSF1-DBD; DBD I; source: E. coli Rosetta2(DE3) carrying pRK603, purified (Ni-NTA, cation exchange, SEC); not shown: MBP, N-terminal, cleaved
[1]
  binding result: binds

B5: 23 bp 3-site HSE (dsDNA)
DNA 1: TGGCGTTCTAGAATATTCGCGGA
DNA 2: ATCCGCGAATATTCTAGAACGCC
HSF1-DBD trimer [3]
  binding result: binds

B6: 12 bp HtH HSE (dsDNA)
DNA 1: GGGAATATTCCC
DNA 2: GGGAATATTCCC
HSF2-DBD
  binding result: binds

B7: 21 bp 3-site HSE (dsDNA)
DNA 1: TGCGTTCTAGAATATTCGCGG
DNA 2: ACCGCGAATATTCTAGAACGC
HSF2-DBD trimer
  binding result: binds
